These results are taken from patent US20150337046A1 (published 2015).

The assay concerns the target T1, human LIGHT (hLIGHT), cell surface-expressed, full length (UniProt O43557 1-240).
T1 chain: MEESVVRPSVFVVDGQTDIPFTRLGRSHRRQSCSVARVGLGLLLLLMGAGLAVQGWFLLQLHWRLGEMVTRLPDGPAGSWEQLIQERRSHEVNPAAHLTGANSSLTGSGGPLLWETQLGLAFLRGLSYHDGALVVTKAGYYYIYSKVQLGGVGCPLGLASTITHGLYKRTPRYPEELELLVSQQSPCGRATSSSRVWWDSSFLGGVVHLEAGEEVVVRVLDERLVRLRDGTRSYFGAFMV
In words: FACS binding; 293-hLIGHT cells. Background: Flow cytometry measures light scatter and fluorescence of single cells or particles in a stream.

B1: recombinant single kappa chain antibody of E1 heavy chain paired with Elkappa(B) (antibody, V domains shown)
VH: EVQLVESGGGLVQPGGSLRLSCAASGFTFSRFNMNWVRQAPGKGLEWVSYISSSSYTIYYADSVKGRFTISRDNAKNSLDLQMNSLRDEDTAVYYCARSIAAAFDYWGQGALVTVSS
VL: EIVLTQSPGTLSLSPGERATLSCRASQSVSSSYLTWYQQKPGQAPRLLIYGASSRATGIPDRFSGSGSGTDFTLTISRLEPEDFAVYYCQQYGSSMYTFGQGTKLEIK
As for B1, the response was half-maximal at 0.547 µg/mL (EC50).

B2: E1 antibody (produced by hybridoma 124 E1, ATCC Accession No. PTA-7729) (antibody, V domains shown)
VH: EVQLVESGGGLVQPGGSLRLSCAASGFTFSRFNMNWVRQAPGKGLEWVSYISSSSYTIYYADSVKGRFTISRDNAKNSLDLQMNSLRDEDTAVYYCARSIAAAFDYWGQGALVTVSS
VL: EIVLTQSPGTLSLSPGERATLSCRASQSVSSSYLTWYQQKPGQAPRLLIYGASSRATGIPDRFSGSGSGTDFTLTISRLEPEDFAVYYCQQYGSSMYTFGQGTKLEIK
In turn, B2 had a concentration for a half-maximal effect (EC50) of 0.463 µg/mL.

As usually defined, the EC50 is the concentration that produces a half-maximal response. The low end stands for higher potency in that assay, the high end for lower potency in that assay.
